Measured values published in patent publication US20110263454A1, “Methods of Identifying Functional Characteristics of Promoters, Transcription Modifying Proteins and Transcription Modulating Agents” (Salk Institute for Biological Studies, priority 2008, published 2011).

Columns and labels:
hCAR promoter = assay: NHR-promoter luciferase screen, hCAR promoter; assay type: cell-based, human; settings: for luciferase activity normalized to lacZ activity and to a control, hCAR: hCAR promoter-luciferase, CV-1 cells, NHR +/- ligand, control = 1.00; for Luc. act., normalized to lacZ / Normalized Luc. act., normalized to control: hCAR promoter, HR/ligand component
Outline: (§1)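 CV-1 cells were co-transfected with 50 ng NHR (homodimer or NHR/RXR heterodimer), 100 ng promoter-luciferase construct and 50 ng LacZ. Luciferase was normalized to LacZ and to a no-NHR/no-ligand control.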

mPgc1b promoter = assay: NHR-promoter luciferase screen, mPgc1b promoter; assay type: cell-based, mouse; settings: for Luc. act., normalized to lacZ / Normalized Luc. act., normalized to control: PGC1b promoter reporter, co-transfected HR, without or with its ligand; for Normalized Luc. act., normalized to control: relative to control; for luciferase activity normalized to lacZ activity and to a control, mPgc1b: mPgc1b promoter-luciferase, CV-1 cells, NHR +/- ligand, control = 1.00
Outline: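 Luciferase reporter read-out after co-expression in CV-1 cells of V5H6-tagged receptor (alone or with RXR), the promoter construct and LacZ. Values are luciferase/LacZ relative to a control lacking NHR or ligand; orphan receptors tested ligand-free.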

hG6PD promoter = assay: NHR-promoter luciferase screen, hG6PD promoter; assay type: cell-based, human; settings: for Luc. act., normalized to lacZ / Normalized Luc. act., normalized to control: G6PD promoter reporter, co-transfected HR, without or with its ligand; for Normalized Luc. act., normalized to control: relative to control; for luciferase activity normalized to lacZ activity and to a control, hG6PD: hG6PD promoter-luciferase, CV-1 cells, NHR +/- ligand, control = 1.00
Outline: as §1

MCP-1 promoter = assay: NHR-promoter luciferase screen, MCP-1 promoter; assay type: cell-based; settings: for Normalized Luc. act., normalized to control / Luc. act., normalized to lacZ: MCP-1 promoter reporter; for Normalized Luc. act., normalized to control: HR without or with its ligand, relative to control; for Luc. act., normalized to lacZ: hormone receptor (HR) without or with its ligand; for mMCP-1 promoter reporter activity: transcription factor +/- ligand, control = 1.00
Outline: as §1

mADRP promoter = assay: NHR-promoter luciferase screen, mADRP promoter; assay type: cell-based, mouse; settings: for Luc. act., normalized to lacZ / Normalized Luc. act., normalized to control: ADRP promoter, HR/ligand component; for mADRP promoter reporter activity: transcription factor +/- ligand, control = 1.00
Outline: as §1

SREBP1c promoter = assay: NHR-promoter luciferase screen, SREBP1c promoter; assay type: cell-based, mouse; settings: for Luc. act., normalized to lacZ / Normalized Luc. act., normalized to control: SREBP1c promoter, HR component without or with ligand; for mSREBP1-c promoter reporter activity: transcription factor +/- ligand, control = 1.00
Outline: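 Values are luciferase activity normalised to LacZ (transfection control) and to a control lacking NHR or ligand. Read-out at 48 h in CV-1 cells carrying 100 ng promoter-reporter, 50 ng receptor (alone or with RXR) and 50 ng LacZ.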

Row | Molecule | luciferase activity normalized to lacZ activity and to a control, hCAR (hCAR promoter) | Luc. act., normalized to lacZ (hCAR promoter) | Normalized Luc. act., normalized to control (hCAR promoter) | Luc. act., normalized to lacZ (mPgc1b promoter) | Normalized Luc. act., normalized to control (mPgc1b promoter) | luciferase activity normalized to lacZ activity and to a control, mPgc1b (mPgc1b promoter) | Luc. act., normalized to lacZ (hG6PD promoter) | Normalized Luc. act., normalized to control (hG6PD promoter) | luciferase activity normalized to lacZ activity and to a control, hG6PD (hG6PD promoter) | Normalized Luc. act., normalized to control (MCP-1 promoter) | Luc. act., normalized to lacZ (MCP-1 promoter) | mMCP-1 promoter reporter activity (MCP-1 promoter) | Luc. act., normalized to lacZ (mADRP promoter) | Normalized Luc. act., normalized to control (mADRP promoter) | mADRP promoter reporter activity (mADRP promoter) | Luc. act., normalized to lacZ (SREBP1c promoter) | Normalized Luc. act., normalized to control (SREBP1c promoter) | mSREBP1-c promoter reporter activity (SREBP1c promoter)
1 | TR4: Testicular Orphan Nuclear Receptor 4 (NR2C2), cDNA driver (protein, UniProt P49116 1-596, looked up) Nuclear receptor subfamily 2 …: MTSPSPRIQIISTDSAVASPQRIQIVTDQQTGQKIQIVTAVDASGSPKQQFILTSPDGAGTGKVILASPETSSAKQLIFTTSDNLVPGRIQIVTDSASVERLLGKTDVQRPQVVEYCVVCGDKASGRHYGAVSCEGCKGFFKRSVRKNLTYSCRSNQDCIINKHHRNRCQFCRLKKCLEMGMKMESVQSERKPFDVQREKPSNCAASTEKIYIRKDLRSPLIATPTFVADKDGARQTGLLDPGMLVNIQQPLIREDGTVLLATDSKAETSQGALGTLANVVTSLANLSESLNNGDTSEIQPEDQSASEITRAFDTLAKALNTTDSSSSPSLADGIDTSGGGSIHVISRDQSTPIIEVEGPLLSDTHVTFKLTMPSPMPEYLNVHYICESASRLLFLSMHWARSIPAFQALGQDCNTSLVRACWNELFTLGLAQCAQVMSLSTILAAIVNHLQNSIQEDKLSGDRIKQVMEHIWKLQEFCNSMAKLDIDGYEYAYLKAIVLFSPDHPGLTSTSQIEKFQEKAQMELQDYVQKTYSEDTYRLARILVRLPALRLMSSNITEELFFTGLIGNVSIDSIIPYILKMETAEYNGQITGASL | 3.15 | 99.4 | 3.1 | 17.3 | 1.5 | 1.46 | 66.2 | 1.8 | 1.77 | 2.1 | 229.9 | 2.15 | 1003.3 | 2.0 | 2.02 | 477.6 | 1.5 | 1.48
2 | CTF1: COUP-TF1 (NR2F1), cDNA driver (protein, UniProt P10589 1-423, looked up) COUP transcription factor 1: MAMVVSSWRDPQDDVAGGNPGGPNPAAQAARGGGGGAGEQQQQAGSGAPHTPQTPGQPGAPATPGTAGDKGQGPPGSGQSQQHIECVVCGDKSSGKHYGQFTCEGCKSFFKRSVRRNLTYTCRANRNCPIDQHHRNQCQYCRLKKCLKVGMRREAVQRGRMPPTQPNPGQYALTNGDPLNGHCYLSGYISLLLRAEPYPTSRYGSQCMQPNNIMGIENICELAARLLFSAVEWARNIPFFPDLQITDQVSLLRLTWSELFVLNAAQCSMPLHVAPLLAAAGLHASPMSADRVVAFMDHIRIFQEQVEKLKALHVDSAEYSCLKAIVLFTSDACGLSDAAHIESLQEKSQCALEEYVRSQYPNQPSRFGKLLLRLPSLRTVSSSVIEQLFFVRLVGKTPIETLIRDMLLSGSSFNWPYMSIQCS | 0.14 | 4.5 | 0.1 | 6.7 | 0.6 | 0.57 | 39.7 | 1.1 | 1.06 | 0.0 | – | 0.00 | 393.3 | 0.8 | 0.79 | 205.9 | 0.6 | 0.64
3 | Erb: Estrogen Receptor β (NR3A2, ERb), cDNA driver (protein, UniProt Q92731 1-530, looked up) Estrogen receptor beta: MDIKNSPSSLNSPSSYNCSQSILPLEHGSIYIPSSYVDSHHEYPAMTFYSPAVMNYSIPSNVTNLEGGPGRQTTSPNVLWPTPGHLSPLVVHRQLSHLYAEPQKSPWCEARSLEHTLPVNRETLKRKVSGNRCASPVTGPGSKRDAHFCAVCSDYASGYHYGVWSCEGCKAFFKRSIQGHNDYICPATNQCTIDKNRRKSCQACRLRKCYEVGMVKCGSRRERCGYRLVRRQRSADEQLHCAGKAKRSGGHAPRVRELLLDALSPEQLVLTLLEAEPPHVLISRPSAPFTEASMMMSLTKLADKELVHMISWAKKIPGFVELSLFDQVRLLESCWMEVLMMGLMWRSIDHPGKLIFAPDLVLDRDEGKCVEGILEIFDMLLATTSRFRELKLQHKEYLCVKAMILLNSSMYPLVTATQDADSSRKLAHLLNAVTDALVWVIAKSGISSQQQSMRLANLLMLLSHVRHASNKGMEHLLNMKCKNVVPVYDLLLEMLNAHVLRGCKSSITGSECSPAEDSKSKEGSQNPQSQ | 0.81 | 25.7 | 0.8 | 9.2 | 0.8 | 0.77 | 45.3 | 1.2 | 1.21 | 1.4 | 146.9 | 1.37 | 536.9 | 1.1 | 1.08 | 249.2 | 0.8 | 0.77
4 | ERR2: Estrogen Related Receptor β (NR3B2, ERRb), cDNA driver (protein, UniProt O95718 1-433, looked up) Steroid hormone receptor ERR2: MSSDDRHLGSSCGSFIKTEPSSPSSGIDALSHHSPSGSSDASGGFGLALGTHANGLDSPPMFAGAGLGGTPCRKSYEDCASGIMEDSAIKCEYMLNAIPKRLCLVCGDIASGYHYGVASCEACKAFFKRTIQGNIEYSCPATNECEITKRRRKSCQACRFMKCLKVGMLKEGVRLDRVRGGRQKYKRRLDSESSPYLSLQISPPAKKPLTKIVSYLLVAEPDKLYAMPPPGMPEGDIKALTTLCDLADRELVVIIGWAKHIPGFSSLSLGDQMSLLQSAWMEILILGIVYRSLPYDDKLVYAEDYIMDEEHSRLAGLLELYRAILQLVRRYKKLKVEKEEFVTLKALALANSDSMYIEDLEAVQKLQDLLHEALQDYELSQRHEEPWRTGKLLLTLPLLRQTAAKAVQHFYSVKLQGKVPMHKLFLEMLEAKV | 0.77 | 24.2 | 0.8 | 12.7 | 1.1 | 1.07 | 59.1 | 1.6 | 1.58 | 8.8 | 946.7 | 8.84 | 874.7 | 1.8 | 1.76 | 347.9 | 1.1 | 1.08
5 | ERR3: Estrogen Related Receptor γ (NR3B3, ERRg), cDNA driver (protein, UniProt P62508 1-458, looked up) Estrogen-related receptor …: MDSVELCLPESFSLHYEEELLCRMSNKDRHIDSSCSSFIKTEPSSPASLTDSVNHHSPGGSSDASGSYSSTMNGHQNGLDSPPLYPSAPILGGSGPVRKLYDDCSSTIVEDPQTKCEYMLNSMPKRLCLVCGDIASGYHYGVASCEACKAFFKRTIQGNIEYSCPATNECEITKRRRKSCQACRFMKCLKVGMLKEGVRLDRVRGGRQKYKRRIDAENSPYLNPQLVQPAKKPYNKIVSHLLVAEPEKIYAMPDPTVPDSDIKALTTLCDLADRELVVIIGWAKHIPGFSTLSLADQMSLLQSAWMEILILGVVYRSLSFEDELVYADDYIMDEDQSKLAGLLDLNNAILQLVKKYKSMKLEKEEFVTLKAIALANSDSMHIEDVEAVQKLQDVLHEALQDYEAGQHMEDPRRAGKMLMTLPLLRQTSTKAVQHFYNIKLEGKVPMHKLFLEMLEAKV | 1.34 | 42.2 | 1.3 | 20.1 | 1.7 | 1.70 | 63.7 | 1.7 | 1.70 | 4.6 | 487.3 | 4.55 | – | – | 3.37 | 406.7 | 1.3 | 1.26
